{"source": "the nanobody polyreactivity screen of Harvey et al. (2022)", "data": [{"test": "yeast display, Sf9 membrane polyspecificity reagent, FACS + sequencing; frameworks hold sequencing errors", "how_it_was_run": "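Genes from sorted yeast were amplified by colony PCR, read by MiSeq 2 × 250 sequencing and filtered on CDR length. These cells carried a synthetic nanobody library in Saccharomyces cerevisiae BJ5465 and were sorted by FACS into low and high (top ~1%) gates on anti-HA and streptavidin fluorescence. Polyreactivity is labelled according to the gate of origin.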", "values": [{"sequence": "QVQLVESGVGLVQAGGSLRLSCAASGFIFKRYAMGWYRQAPGKERELVATISNSGGRTYYADSVKWRFTISRDNAKNTVYLQMNSLKPEDTAVYYCAALPFWWGGYWGQGTQVTVSS", "polyreactivity (PSR sort gate)": "high polyreactivity"}, {"sequence": "QVQLVESGGGLVQARGSLRLSCAASGLTSRYYAMGWYRQAPGKERELVAAISSRGGRTYYADSVKGPFTISRDNAKNTVYLQMNSLQPEDTAVYYCYAAAGAYSFLSTYNRGEEYWGQGTQVTVSS", "polyreactivity (PSR sort gate)": "high polyreactivity"}, {"sequence": "QVQLVESGGGLVQAGGSLRLSCAASGSTFRKYGMGWYRQAPGKERELVARITSSTGTTYYADSVKGRFTISRDNAKNTVYLQMNSLKPEDTAVNYCNARVRYREWGLYYYWGQGTQVTVSS", "polyreactivity (PSR sort gate)": "high polyreactivity"}, {"sequence": "QVQLVESGGGLFQAGGSLRLSCAASGSTLVGNAMGWYRQAPGKERELVATISSSGGSTYYADSVKGRFTISRDNAKNTVYLQMNSLKPEDTGVYYCAARIQWPTWSLYYYWGQGTQVTVSS", "polyreactivity (PSR sort gate)": "high polyreactivity"}, {"sequence": "QVQLVESVGGLVQAGGSLRLSCPASGSTFTDYAMGWYRQAPGKERELVAANSWSGGSTYYADSVKGRFTISRDNAKNTVYLQMNSLKPEDTAVYYCAFRYHGYDYWGQGTQVTVSS", "polyreactivity (PSR sort gate)": "high polyreactivity"}, {"sequence": "QVQLVESGGGLVQAGGSLRLSCAASRRIFGQNVMGWYRQAPGKERELVAAITSAGRTYYADSVKGRFTISRDNAKNTVYLQMNSLKPEDTAVYYCAAYVRRGFDWGHGTQVTVSS", "polyreactivity (PSR sort gate)": "high polyreactivity"}, {"sequence": "QVQLVESGGGLVQAGGSLRLSCAASGFTVYKYVKGWYRQAPGKERELVAAITTSGGSTYYADSVKGRFTISRDNPKNTVYLQMNSLKPEDTAVYYCNARSLHTSEGDYWGQGTQVTVSS", "polyreactivity (PSR sort gate)": "low polyreactivity"}, {"sequence": "QVQIVESGGGLVQPGCSLRLSCAASGRIFYGYAMGLYRQSPGKERELVAAITSTRGRTYYADSVKGRFTISRDNAKNTFYLQMNSLKPEDSAVYYCAKRGYTRWGLDYWGQGTQVTVSS", "polyreactivity (PSR sort gate)": "high polyreactivity"}, {"sequence": "QVQLVESGGGLVQAGGSRRLSCAASGRTFPYNAMGWYRQATGKERELVATNDSSGTRTFYADSVKGRFTISRDNAKNTVYLQLNRLKPEDNAVYYCAAGIIYSNETNITSYDYWGQGTQVTVSS", "polyreactivity (PSR sort gate)": "low polyreactivity"}, {"sequence": "QVQLVESGGGLVQAGGSLRLSCAASGITFWSNSMGWYRQAPGKERELVATITSSGGDNTNYADSVKGRFTISRDNAKNSVYLQMNSLKPEDTAVYYCNKEGQQSYRWRMDYWGQGTQVTVSS", "polyreactivity (PSR sort gate)": "low polyreactivity"}, {"sequence": "QVKLVESGGGLVQAGGSLRLSCAASGGIFYFNPMGWYRQEPGKERELVASITWSGGNTYYADSVKGRFTISRDIAKNTVSLQMISLKPEDTAVYYCAAYYVTPIYYYWGQGTQVTVSS", "polyreactivity (PSR sort gate)": "low polyreactivity"}, {"sequence": "QVQLVESGGGLVQAGCSLRLSSAASGFTFGYYGMGWYRQAPGKERELVAAISQSSTDTYYADSVKGRFTISRDNAKNTVYLQMNSLKPEDTPVYYCAAHPTDSEYDDYEYWGQGTQVTVSS", "polyreactivity (PSR sort gate)": "low polyreactivity"}, {"sequence": "QVQLVESGGGLVQAGGSLRLSCAASGFIFPYYARGWYRQAPGKERELVAGITGADSTYYADSVKGRFTISRDNAKNTVYLQMNSLKPEDTAVYYCARKRYSLSRTYNYGYWGQGTQVTVSS", "polyreactivity (PSR sort gate)": "high polyreactivity"}, {"sequence": "QVQLVESGGGLVQAGGSLRLSCAASGSTFDPNTMGWYRQAPGKERELVAAITSSTASTYYADSVKGRFTISRDNAKNTVYLQMNSLKPEDTAVYYCAADSEQDNLRYYRWVWYYYWGQGTQVTVSS", "polyreactivity (PSR sort gate)": "low polyreactivity"}, {"sequence": "QVQLVESGGGLVQAGGSLRLSCAASGRTINGNTMGWYRQAPGKERELVAVIDWSGGSTYYADSVKGRFTISRDTAKNTVYLQMNSLKPEDTAVYFCATVSGYAYYYWGQGTQVTVSS", "polyreactivity (PSR sort gate)": "low polyreactivity"}, {"sequence": "QVQLVESGGGLVQAGGSLRLSCAASGSTFGWYTMGWYRQSPGKERELVAAITSRGTRTSYADSVKGRFTISRDYAKNTVYLQMNSLKPEDTAVYYCAARVFRGLGEYYWGQGTQVTVSS", "polyreactivity (PSR sort gate)": "high polyreactivity"}, {"sequence": "QVQLVESGGGLVQAGGSLRLSCAASGYTFYYAMGWYRQAPGKERELVAAISAGGGRTYYADSVKGRFTISRDNAKNTDYLQMNSLKPEDTAVYYCNRVYRLTAYGYDYWGQGTQVTVSS", "polyreactivity (PSR sort gate)": "high polyreactivity"}, {"sequence": "QVQLVESGGGLVQAGRSLRLSCAASGSTFVPYAMGWYRQAPGKERELVAAITTSGGNTYYADSVKGRFTISRDNAKNTVYLQMNSLKPEDTAVYYCAADTYRRFDYWGQGTQVTVSS", "polyreactivity (PSR sort gate)": "low polyreactivity"}, {"sequence": "LVQLQESGGGLVQAGGSLRLSCAASGTITPGGYKGWYRQAPGKERELVASINVGGSTNYADSVKGRFTISRDNAKKTVYLQMKSLKPEDNAVYYCAVWGRNRLQLSYWGQGTQVTVSS", "polyreactivity (PSR sort gate)": "low polyreactivity"}, {"sequence": "QVQLVESGGGIVQAGGSLRLSCAASGLIFYTYAMGWYRQAPGKERELVATISWDVDSTNYADSVKGRFTISRDNAKNTVYLQMNSLKPEDTAGYYCAVDSTFDSYWYWVDYYEYGYWGQGTQVTVSS", "polyreactivity (PSR sort gate)": "high polyreactivity"}, {"sequence": "QVQLQESGGGLVQAGVSLRLSCAASGYISIEEDISWFCQAPGKERELVASITYGAITYYADSVKGRLTISSDNAKNTVYRQMNCLKPEDTAEYYCAVSYDYQQYYVSCGQGTQVTVSS", "polyreactivity (PSR sort gate)": "low polyreactivity"}, {"sequence": "QDQLVESGGGLVQAGGSLRLSCAASGFIFRFNARGWYRQAPGKEREVVAVIRWSSGSTYYADSVKGRFTISRDNAKNTVYLQMNSLKPEDTAVYYCAAVDDDYSIVWYYYWGQGTQVTVSS", "polyreactivity (PSR sort gate)": "low polyreactivity"}, {"sequence": "QVQLVESGGRLVQAGGSLRLSCAASGRTIVIYAMGWYRQAPGKEREFVAAISRSGGSTYYADSVKGRFTISRDNAKNTVYLQMNSLKPEDTAVYYCYTRTPYWFKSDYWGQGTQVTVSS", "polyreactivity (PSR sort gate)": "low polyreactivity"}, {"sequence": "QVQLVESGGGLVQAGGSLRLSCAASGFIFYHYAMGWYRQAPGKERELVAAISWSGGSTYYADSVKGRFTISRDNAKNTVYLQMNSLKPEDTAVYYCAAANTNRFPYGYWGQGTQVTVSS", "polyreactivity (PSR sort gate)": "high polyreactivity"}, {"sequence": "QVQLVESGGGLVQAGGSLRLSCAPSGSILRSYDMGWYRQAPGTERELVAAISSSGGSTYYADSVKGRFTISRDNAKNTVYLQMNSLKQEDTAVYYCAAATSRRFDYWGQGTQVTVSS", "polyreactivity (PSR sort gate)": "high polyreactivity"}, {"sequence": "QVQLVESGGGLVQAGGSLRLSCAASGFISDVYAMGCYRQAPGKERELVAVITWRGSTYYAYSVKGRFTISRDNAKNTVYLQMNSLKPEDTAVYYCAAESQGDWAFDYWGQGTQVTVSS", "polyreactivity (PSR sort gate)": "low polyreactivity"}, {"sequence": "QVQLVESGGGVVQAGGSLRLSGAASGSTLLRNAMGWYRQAPGKAWELVAVITYSGGSTYYADSVKGRFTISRDQAKNTVYLQMNSLIPEDTAVYYCAADKWYYVRYATDAYSKFDYWGQGTQVTVSS", "polyreactivity (PSR sort gate)": "low polyreactivity"}, {"sequence": "QVQLVESGGGLVQAGASLRLSCAASGRNFHTYGMGWYRQAPGKESELVAAITWTGGSTYYADSVKGRFTISRDNAKNTVYLQMNSLKPEDTAVYYCAADYPRDIIGSMDYWGQGTQVSVSS", "polyreactivity (PSR sort gate)": "low polyreactivity"}, {"sequence": "QDQLVESGGGLVQAGGSLRLSCAASGSIFSFYAMGWYSQATGKERELVAGIRWRGGTSTFYADSVKGRFTISRDNEKNTVYLQMNSLNPEDTAVYYCADKRRTGGNGYWGQGTQVTVSS", "polyreactivity (PSR sort gate)": "high polyreactivity"}, {"sequence": "QVQLVESGGGLVQAGGSLRLTCAASGSIFYAYAMGWYRQAPGKERELVAAISGRGGSTYYADSVTGRFTISRDNAKKTVYFQMNSLKPEDTAVYYCAAERRTFYGLGVHYWGQVTQVTVSS", "polyreactivity (PSR sort gate)": "high polyreactivity"}, {"sequence": "QVQLVESGGGLVQAGGSLRLSCAASGITFRRYTMGWYRQAPGKERELVAAITSRGSSTYYADSVKGRFTISRDNAKNTVYLQMNSLKPEDTAVYYCAAQYRQRRHDYWGQGTQVTVSS", "polyreactivity (PSR sort gate)": "high polyreactivity"}, {"sequence": "QVQLVESGGGLVQAGGSLRLSCGASGSISKINAMGWYRQARGKERELVAAINTGDSTYYADSVKGRFTISRDNAKNTVYLQRNSLKPEDTAVYYCAAEGSPTGYDYWGLGTQVTVSS", "polyreactivity (PSR sort gate)": "low polyreactivity"}, {"sequence": "QVQVVESGGGLVQAGGSLRLSCAASGRTFGGYDMGWYRQAPGKERELVAAISWSGGNTYYADSVKGRFTISRDNAKNTVYLQMNSLKPEDTAVYYCAAGHYVYWYRYQLGRYNYWGQGTQVTVSS", "polyreactivity (PSR sort gate)": "high polyreactivity"}, {"sequence": "QVQLVESGGGLVQAGGILRLICAASGLTFYRYAMGWYRQAPGKERELVAAINSRGSTYADSVKGRFTISRDNAKNTVYFQMNSLKPEDSAVYYCAARGRYRLYGYWGQVTQVTVSS", "polyreactivity (PSR sort gate)": "high polyreactivity"}, {"sequence": "QVQLVDSGGGLVQAGGSLRLSCAASGRIFYSNAMGWYRQAPGKVRELVAAITTSGASTYYADSVKGRFTISRDNAKNTVYLQLISMKPEDTAVYYCATYAVVYPFAMDYWGQGTQVTVSS", "polyreactivity (PSR sort gate)": "low polyreactivity"}, {"sequence": "QVQLVESGGGLVQAGGSLRLSCAASGNTFYKNTMGWYRQAPWKERELVAAISQRGTRTYYADSVKGRFTISRDNAKNTVYLQMNSLKPEDTAVYYCATDLSQVGFDYWGQGTQVTVSS", "polyreactivity (PSR sort gate)": "high polyreactivity"}, {"sequence": "QFQLVESGGGLVQAGGSLRLSCAASGFTFEANAMGWYRKAPGKERELVASITRSDGSTHYADSVKGRFTISRDNAKNTVYLLMNRLKPEDTAVYYCAAVPESLTPKKGYGYWGKGTQVTVSS", "polyreactivity (PSR sort gate)": "low polyreactivity"}, {"sequence": "QVQLVESGGGLVQAGGSLRLSCAASGFTFVSNDMGWYRQAPGKERELVAAIRYRGGDTYYADSVKGRFTISRDNAKNTVYLQMNSLKPEDTAVYYCAVDVATYTAGWYYHGYDYWGQGTQVTVSS", "polyreactivity (PSR sort gate)": "low polyreactivity"}, {"sequence": "QVQLVESGGGLVQAGGSLRLSCAASGFIFRYYAMGWYRQAPGKEREFVAAISRSGSSTYYADSVKGRFTISRDNAKNTVYLQMNSLKPEDTAVYYCNARKYRKGYGYWGQGTQVTVSS", "polyreactivity (PSR sort gate)": "high polyreactivity"}, {"sequence": "QVQLVESGGGLVQAGGSLRLSCAASGRTFRSYAMGWYRQAPGKERELVAAITSGGSTYYADSVKGRFTISRDNAKNTVYLQMNSLKPEDTAVYYCARGDHVGSAGYDYWGQGTQVTVSS", "polyreactivity (PSR sort gate)": "low polyreactivity"}, {"sequence": "LVQLVESGGRLVQAGGSLRLSCAASGNIFWYAMGWYRQAPGKERELVAAITYRGSTTYFAYSVKGRVTISRDKAKNTVYLQMNSLHPEDTAVYYCAARASYTRRHVGRPYDYWGQGTQVTVSS", "polyreactivity (PSR sort gate)": "high polyreactivity"}, {"sequence": "QVQLVESGVGLVQAGGSLRLICAASGSIFGYNAMGWYRQAPGKERELVAAISRSGGRTYYADSVKGSFTISRDNAKNTVYLQMNSLKPEDTAVYYCAASRPGLRTPGQMGYWGQGTQVTVSS", "polyreactivity (PSR sort gate)": "high polyreactivity"}, {"sequence": "QVQLVESGGGLVQAGGSLRLSCAASGSTLKYNAMGWYRQATGKERELVAAISTSGGNTYYADSVKGRFTISRDNAKNTVYLQMNSLKPEDPAVYYFAKVLGYYYYDYDSWGQGTQVTLSS", "polyreactivity (PSR sort gate)": "low polyreactivity"}]}]}
